Source: PMC13036090

Columns and labels:
[1] = NADH OD340 assay, Flag-purified protein; settings: glycan lost; control: WT UGDH from HEK293T
[2] = Flag-KPNA2 pull-down, HEK293T, IFNγ; settings: glycan lost; control: cells expressing UGDH WT
[3] = HABP immunofluorescence and competitive ELISA; settings: glycan lost; control: UGDH-KO A549 rescued with WT UGDH
[4] = steady-state kinetics, Michaelis-Menten fit; settings: glycan lost; control: WT UGDH from HEK293T
[5] = NADH OD340 assay, Flag-purified from HEK293T; settings: glycan gained; control: WT UGDH, no OGT co-expression or TMG

Protein	enzymatic_activity [1]	other: KPNA2-STAT1 association in cells [2]	other: cellular hyaluronic acid level [3]	enzymatic_activity, kcat_Km [4]	enzymatic_activity [5]
UGDH (uridine diphosphate glucose dehydrogenase): S350A (protein) parent chain: MFEIKKICCIGAGYVGGPTCSVIAHMCPEIRVTVVDVNESRINAWNSPTLPIYEPGLKEVVESCRGKNLFFSTNIDDAIKEADLVFISVNTPTKTYGMGKGRAADLKYIEACARRIVQNSNGYKIVTEKSTVPVRAAESIRRIFDANTKPNLNLQVLSNPEFLAEGTAIKDLKNPDRVLIGGDETPEGQRAVQALCAVYEHWVPREKILTTNTWSSELSKLAANAFLAQRISSINSISALCEATGADVEEVATAIGMDQRIGNKFLKASVGFGGSCFQKDVLNLVYLCEALNLPEVARYWQQVIDMNDYQRRRFASRIIDSLFNTVTDKKIAILGFAFKKDTGDTRESSSIYISKYLMDEGAHLHIYDPKVPREQIVVDLSHPGVSEDDQVSRLVTISKDPYEACDGAHAVVICTEWDMFKELDYERIHKKMLKPAFIFDGRRVLDGLHNELQTIGFQIETIGKKVSSKRIPYAPSGEIPKFSLQDPPNKKPKV	decreases	increases	decreases	decreases, 0.576 vs 5.07, Km value of 37.7 μM for the S350A, which was 3-fold higher than that of the WT with a Km value of 11.4 μM	
UGDH (uridine diphosphate glucose dehydrogenase): OGT co-expression (protein) parent chain: MFEIKKICCIGAGYVGGPTCSVIAHMCPEIRVTVVDVNESRINAWNSPTLPIYEPGLKEVVESCRGKNLFFSTNIDDAIKEADLVFISVNTPTKTYGMGKGRAADLKYIEACARRIVQNSNGYKIVTEKSTVPVRAAESIRRIFDANTKPNLNLQVLSNPEFLAEGTAIKDLKNPDRVLIGGDETPEGQRAVQALCAVYEHWVPREKILTTNTWSSELSKLAANAFLAQRISSINSISALCEATGADVEEVATAIGMDQRIGNKFLKASVGFGGSCFQKDVLNLVYLCEALNLPEVARYWQQVIDMNDYQRRRFASRIIDSLFNTVTDKKIAILGFAFKKDTGDTRESSSIYISKYLMDEGAHLHIYDPKVPREQIVVDLSHPGVSEDDQVSRLVTISKDPYEACDGAHAVVICTEWDMFKELDYERIHKKMLKPAFIFDGRRVLDGLHNELQTIGFQIETIGKKVSSKRIPYAPSGEIPKFSLQDPPNKKPKV					increases
UGDH (uridine diphosphate glucose dehydrogenase): TMG (50 μM) (protein) parent chain: MFEIKKICCIGAGYVGGPTCSVIAHMCPEIRVTVVDVNESRINAWNSPTLPIYEPGLKEVVESCRGKNLFFSTNIDDAIKEADLVFISVNTPTKTYGMGKGRAADLKYIEACARRIVQNSNGYKIVTEKSTVPVRAAESIRRIFDANTKPNLNLQVLSNPEFLAEGTAIKDLKNPDRVLIGGDETPEGQRAVQALCAVYEHWVPREKILTTNTWSSELSKLAANAFLAQRISSINSISALCEATGADVEEVATAIGMDQRIGNKFLKASVGFGGSCFQKDVLNLVYLCEALNLPEVARYWQQVIDMNDYQRRRFASRIIDSLFNTVTDKKIAILGFAFKKDTGDTRESSSIYISKYLMDEGAHLHIYDPKVPREQIVVDLSHPGVSEDDQVSRLVTISKDPYEACDGAHAVVICTEWDMFKELDYERIHKKMLKPAFIFDGRRVLDGLHNELQTIGFQIETIGKKVSSKRIPYAPSGEIPKFSLQDPPNKKPKV					increases
